Data published in PMC11162770, “The mutation R107Q alters mtSSB ssDNA compaction ability and binding dynamics” (Nucleic Acids Research, 2024).

Assays:
[1] = system: mtSSB R107Q-Alexa555/647 (human); assay: competition; conditions: EMSA: 20 mM Tris-HCl pH 7.8, 10 mM MgCl2, 0.1 mg/ml BSA, 10 mM DTT, 10% glycerol, 2 mM ATP
[2] = target: T1, mtSSB WT-Alexa555/647 (human) (UniProt Q04837); assay: competition; conditions: WT-Alexa647 vs R107Q-Alexa555 150 nM each (1:1); 24% of ssDNA WT only, 76% both; EMSA: 20 mM Tris-HCl pH 7.8, 10 mM MgCl2, 0.1 mg/ml BSA, 10 mM DTT, 10% glycerol, 2 mM ATP, room temperature; TIRF: ssDNA diluted in 20 mM TrisOAc pH 8, 20% …
T1 sequence: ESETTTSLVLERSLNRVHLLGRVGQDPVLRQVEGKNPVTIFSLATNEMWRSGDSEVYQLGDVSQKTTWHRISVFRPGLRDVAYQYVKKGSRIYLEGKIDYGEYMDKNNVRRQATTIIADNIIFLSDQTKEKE

[3] = system: mtSSB R107Q-Alexa555/647 (human); assay: TIRF dissociation; conditions: unwrapping almost 3 times faster than WT, EMSA: 20 mM Tris-HCl pH 7.8, 10 mM MgCl2, 0.1 mg/ml BSA, 10 mM DTT, 10% glycerol, 2 mM ATP, room temperature, TIRF: ssDNA diluted in 20 mM TrisOAc pH 8, 20% …
[4] = target: T1, mtSSB WT-Alexa555/647 (human); assay: TIRF dissociation; conditions: EMSA: 20 mM Tris-HCl pH 7.8, 10 mM MgCl2, 0.1 mg/ml BSA, 10 mM DTT, 10% glycerol, 2 mM ATP, room temperature, TIRF: ssDNA diluted in 20 mM TrisOAc pH 8, 20% …
[5] = target: T2, mtSSB R107Q (His-tag, C-terminal Cys) (human, UniProt Q04837 17-148, R107Q); assay: BLI; 1:1 fit; Discussion swaps the 30/60-nt labels; EMSA: 20 mM Tris-HCl pH 7.8, 10 mM MgCl2, 0.1 mg/ml BSA, 10 mM DTT, 10% glycerol, 2 mM ATP, room temperature; TIRF: ssDNA diluted in 20 mM TrisOAc pH 8, 20% sucrose, 20 mM DTT, NaOAc 0-400 mM added; BLI and AFS buffers not in material; conditions: protein: recombinant; tags: N-terminal His; extra C-terminal Cys; chain copies: 4; single strand
T2 sequence: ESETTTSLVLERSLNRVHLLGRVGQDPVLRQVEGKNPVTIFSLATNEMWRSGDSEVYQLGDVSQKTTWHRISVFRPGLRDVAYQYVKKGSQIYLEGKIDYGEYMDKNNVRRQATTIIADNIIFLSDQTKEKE

[6] = target: T3, mtSSB WT (His-tag, C-terminal Cys) (human, UniProt Q04837 17-148); assay: as above; conditions: protein: recombinant; tags: N-terminal His; extra C-terminal Cys; chain copies: 4; single strand
T3 sequence: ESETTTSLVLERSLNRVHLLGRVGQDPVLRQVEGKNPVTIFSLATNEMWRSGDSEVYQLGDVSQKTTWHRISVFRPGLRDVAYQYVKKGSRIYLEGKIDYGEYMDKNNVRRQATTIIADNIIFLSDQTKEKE

[7] = target: the molecule itself; assay: mass photometry; Refeyn TwoMP; proteins prepared at 1 uM and diluted to 100 nM before measurement; data collected for one minute; oligomeric state in solution (tetramer)

In the case of lambda ssDNA, the binding signal (% of mtSSB on co-coated ssDNA) ([1]; R107Q-Alexa555 150 nM vs WT-Alexa647 15 nM (1:0.1), room …, TIRF: ssDNA diluted in 20 mM TrisOAc pH 8, 20% suc) is reported as 94, the binding signal (% of ssDNA coated by R107Q only) ([1]; R107Q-Alexa555 vs WT-Alexa647 150 nM each (1:1), bound only together with WT, room temperature, TIRF: ssDNA diluted in 20 mM TrisOAc pH 8, 20% …) is reported as 0 and the binding signal (% of mtSSB on co-coated ssDNA) [2] is reported as 73. The binding signal (% lost after salt) ([3]; 100 mM NaOAc) was 40, the binding signal (% lost after salt) ([3]; 400 mM NaOAc) was 77 and the binding signal (% lost after salt) ([4]; 100 mM NaOAc) was 20. For the same molecule, the binding signal (% lost after salt) ([4]; 400 mM NaOAc) was 20.

B1: poly-dT30 (ssDNA)
DNA: TTTTTTTTTTTTTTTTTTTTTTTTTTTTTT
B1 showed a Kd [5] of 1.35 ± 0.04 nM and a Kd [6] of 2.18 ± 0.1 nM.

B2: poly-dT60 (ssDNA)
DNA: TTTTTTTTTTTTTTTTTTTTTTTTTTTTTTTTTTTTTTTTTTTTTTTTTTTTTTTTTTTT
B2 showed a Kd [5] of 1.18 ± 0.02 nM and a Kd [6] of 1.17 ± 0.02 nM.

B3: Mitochondrial single-stranded DNA-binding protein, wild type (mtSSB^WT), lacking the mitochondrial targeting sequence, with N-terminal His-tag and C-terminal … (natural protein, human)
chain: ESETTTSLVLERSLNRVHLLGRVGQDPVLRQVEGKNPVTIFSLATNEMWRSGDSEVYQLGDVSQKTTWHRISVFRPGLRDVAYQYVKKGSRIYLEGKIDYGEYMDKNNVRRQATTIIADNIIFLSDQTKEKEC
notes: one cysteine residue added at the C-terminus for maleimide labelling; not shown: His-tag, N-terminal, kept
In the case of B3, the “stoichiometry N” value [7] is reported as 4.

B4: Mitochondrial single-stranded DNA-binding protein variant R107Q (mtSSB^R107Q), lacking the mitochondrial targeting sequence, with N-terminal His-tag and … (natural protein, human)
chain: ESETTTSLVLERSLNRVHLLGRVGQDPVLRQVEGKNPVTIFSLATNEMWRSGDSEVYQLGDVSQKTTWHRISVFRPGLRDVAYQYVKKGSQIYLEGKIDYGEYMDKNNVRRQATTIIADNIIFLSDQTKEKEC
notes: one cysteine residue added at the C-terminus for maleimide labelling; R107Q is a variant found in patients; PDB 6RUP is the wild-type parent's structure; not shown: His-tag, N-terminal, kept
With B4 the “stoichiometry N” value [7] was 4.
